Entries after “also recorded” stand apart in the source; their conditions may differ.

Assay [1] concerns the target T1, caspase-3 (Homo sapiens, UniProt P42574).
T1 construct: purchased BioMol
T1 sequence (P42574 29-175 limits assumed): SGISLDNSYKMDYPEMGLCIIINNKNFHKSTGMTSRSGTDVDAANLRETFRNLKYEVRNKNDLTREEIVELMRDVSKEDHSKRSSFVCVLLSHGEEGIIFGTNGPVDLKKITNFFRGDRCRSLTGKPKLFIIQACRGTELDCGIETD
T1 sequence (P42574 176-277 limits assumed): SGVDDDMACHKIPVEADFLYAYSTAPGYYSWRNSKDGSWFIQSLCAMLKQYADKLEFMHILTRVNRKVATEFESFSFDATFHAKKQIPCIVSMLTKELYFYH
The assay is classed as biochemical.

Assay [2] concerns the target cyclic AMP dependent protein kinase catalytic subunit (Homo sapiens, UniProt P17612). The settings on record: cited from earlier work.
The target of assay [3] is cyclic AMP-dependent protein kinase (Homo sapiens, UniProt P17612). As to conditions: cited from earlier work.
The target in the next assay is T2, enterokinase (Bos taurus, UniProt P98072).
T2 construct: purchased Invitrogen
Description: Enterokinase assay with firefly luciferases having an internal enterokinase site. Type of assay: biochemical.

Assay [4] deals with T1, caspase-3. Description: Caspase-3 activation of circularly permuted firefly luciferase having a caspase-3 site. The assay is classed as biochemical. As to conditions: TnT rabbit reticulocyte lysate.

T2 sequence (P98072 801-1035 limits assumed): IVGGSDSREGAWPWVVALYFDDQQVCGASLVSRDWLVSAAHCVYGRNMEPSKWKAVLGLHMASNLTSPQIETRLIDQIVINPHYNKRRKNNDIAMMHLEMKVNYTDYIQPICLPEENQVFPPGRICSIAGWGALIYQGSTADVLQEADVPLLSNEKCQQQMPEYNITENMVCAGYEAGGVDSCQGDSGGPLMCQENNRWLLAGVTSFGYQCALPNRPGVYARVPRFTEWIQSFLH

In the case of Ac-DEVD-CHO, the “caspase-3 induced decrease of Cbg69DEVD luciferase activity in presence of caspase inhibitor” value on caspase-3 [1] was “decrease in activity was not observed”.

Consider LRRASLG, for which the “reduction of activity on addition of kinase catalytic subunit” value in assay [2] is given as 30%.

As for “RRFS: Photinus pyralis luciferase, valine 217 mutated to arginine generating site RRFS (Sala-Newby et al.)”, the “decrease of activity when phosphorylated” value in assay [3] is reported as “up to 80%”.

B1: WT enzyme: parental (unmodified) firefly luciferase luc+ (protein)
chain: MEDAKNIKKGPAPFYPLEDGTAGEQLHKAMKRYALVPGTIAFTDAHIEVDITYAEYFEMSVRLAEAMKRYGLNTNHRIVVCSENSLQFFMPVLGALFIGVAVAPANDIYNERELLNSMGISQPTVVFVSKKGLQKILNVQKKLPIIQKIIIMDSKTDYQGFQSMYTFVTSHLPPGFNEYDFVPESFDRDKTIALIMNSSGSTGLPKGVALPHRTACVRFSHARDPIFGNQIIPDTAILSVVPFHHGFGMFTTLGYLICGFRVVLMYRFEEELFLRSLQDYKIQSALLVPTLFSFFAKSTLIDKYDLSNLHEIASGGAPLSKEVGEAVAKRFHLPGIRQGYGLTETTSAILITPEGDDKPGAVGKVVPFFEAKVVDLDTGKTLGVNQRGELCVRGPMIMSGYVNNPEATNALIDKDGWLHSGDIAYWDEDEHFFIVDRLKSLIKYKGYQVAPAELESILLQHPNIFDAGVAGLPDDDAGELPAAVVVLEHGKTMTEKEIVDYVASQVTTAKKLRGGVVFVDEVPKGLTGKLDARKIREILIKAKKGGKIAV
On to B1, for which, in the assay with enterokinase, the “effect of enterokinase on luciferase activity” value is given as “no effect; also recorded: not affected; also recorded: not altered”. The “luminescence reading (Turner 20/20 luminometer)” value with enterokinase (0 minutes, with 1 U EKMax) was 2561; in the assay with enterokinase (0 minutes, without EKMax) it was 2517; in the assay with enterokinase (15 minutes, with 1 U EKMax) it was 2905; with enterokinase (15 minutes, without EKMax), 2855; with enterokinase (30 minutes, with 1 U EKMax), 3190; with enterokinase (30 minutes, without EKMax), 2987. Also, the “effect of caspase-3 on activity” value with caspase-3 [4] was “not affected”.
